Laboratory results taken from patent US20240117018A1.

What was measured:
Assay in all cases: cell-based or functional assay
[1] = target: HIV-1 Env of pseudovirus CNE8 (HIV-1)
[2] = target: HIV-1 Env of pseudovirus 0260.v5.c36 (HIV-1)
[3] = target: HIV-1 Env of pseudovirus T250-4 (HIV-1)
[4] = target: HIV-1 Env of pseudovirus 3365.v2.c2 (HIV-1)
[5] = target: HIV-1 Env of pseudovirus CNE5 (HIV-1)
[6] = target: HIV-1 Env of pseudovirus ZM249M.PL1 (HIV-1)
[7] = target: HIV-1 Env of pseudovirus Ce1086_B2 (HIV-1)
[8] = target: HIV-1 Env of pseudovirus Q769.d22 (HIV-1)
[9] = target: HIV-1 Env of pseudovirus 7030102001E5(Rev-) (HIV-1)
[10] = target: HIV-1 Env of pseudovirus TRJO4551.58 (HIV-1)
[11] = target: HIV-1 Env of pseudovirus CNE58 (HIV-1)
[12] = target: HIV-1 Env of pseudovirus 246F C1G (HIV-1)
[13] = target: HIV-1 Env of pseudovirus THRO4156.18 (HIV-1)
[14] = target: HIV-1 Env of pseudovirus Du156.12 (HIV-1)
[15] = target: HIV-1 Env of pseudovirus CNE21 (HIV-1)
[16] = target: HIV-1 Env of pseudovirus Du172.17 (HIV-1)
[17] = target: HIV-1 Env of pseudovirus RHPA4259.7 (HIV-1)
[18] = target: HIV-1 Env of pseudovirus Q23.17 (HIV-1)
[19] = target: HIV-1 Env of pseudovirus HIV-16055-2.3 (HIV-1)
[20] = target: HIV-1 Env of pseudovirus CAP210.2.00.E8 (HIV-1)
[21] = target: HIV-1 Env of pseudovirus HIV-16845-2.22 (HIV-1)
[22] = target: HIV-1 Env of pseudovirus 1056_10_TA11_1826 (HIV-1)
[23] = target: HIV-1 Env of pseudovirus HIV-001428-2.42 (HIV-1)
[24] = target: HIV-1 Env of pseudovirus QH0692.42 (HIV-1)
[25] = target: HIV-1 Env of pseudovirus 1012_11_TC21_3257 (HIV-1)
[26] = target: HIV-1 Env of pseudovirus 6240_08_TA5_4622 (HIV-1)
[27] = target: HIV-1 Env of pseudovirus 1006_11_C3_1601 (HIV-1)
[28] = target: HIV-1 Env of pseudovirus Ce1176_A3 (HIV-1)
[29] = target: HIV-1 Env of pseudovirus Ce0393_C3 (HIV-1)
[30] = target: HIV-1 Env of pseudovirus ZM214M.PL15 (HIV-1)
[31] = target: HIV-1 Env of pseudovirus 249M B10 (HIV-1)
[32] = target: HIV-1 Env of pseudovirus WEAU_d15_410_787 (HIV-1)
[33] = target: HIV-1 Env of pseudovirus ZM109F.PB4 (HIV-1)
[34] = target: HIV-1 Env of pseudovirus Ce703010054_2A2 (HIV-1)
[35] = target: HIV-1 Env of pseudovirus HIV-0013095-2.11 (HIV-1)
[36] = target: HIV-1 Env of pseudovirus Ce704809221_1B3 (HIV-1)
[37] = target: HIV-1 Env of pseudovirus 1394C9G1(Rev-) (HIV-1)

N49P9.1 (antibody)
neutralization IC50 [1]: 0.228 µg/mL | neutralization IC80 [1]: 0.921 µg/mL | neutralization MPI [1]: 100 | neutralization IC50 [2]: 0.519 µg/mL | neutralization IC80 [2]: 0.151 µg/mL | neutralization MPI [2]: 100 | neutralization IC50 [3]: > 50 µg/mL | neutralization IC80 [3]: > 50 µg/mL | neutralization MPI [3]: 7 | neutralization IC50 [4]: 0.055 µg/mL | neutralization IC80 [4]: 0.725 µg/mL | neutralization MPI [4]: 100 | neutralization IC50 [5]: 0.183 µg/mL | neutralization IC80 [5]: 0.641 µg/mL | neutralization MPI [5]: 100

N49P19 (antibody)
neutralization IC50 [1]: 0.772 µg/mL | neutralization IC80 [1]: 4.84 µg/mL | neutralization MPI [1]: 97 | neutralization IC50 [2]: 1.25 µg/mL | neutralization IC80 [2]: 8.52 µg/mL | neutralization MPI [2]: 99 | neutralization IC50 [3]: > 50 µg/mL | neutralization IC80 [3]: > 50 µg/mL | neutralization MPI [3]: 7 | neutralization IC50 [4]: 0.579 µg/mL | neutralization IC80 [4]: 2.09 µg/mL | neutralization MPI [4]: 99 | neutralization IC50 [5]: 0.748 µg/mL | neutralization IC80 [5]: 3.29 µg/mL | neutralization MPI [5]: 100

NIH 45-46 (antibody)
IC50 [6]: 0.02 µg/mL | IC80 [6]: 0.06 µg/mL | IC50 [7]: 0.04 µg/mL | IC80 [7]: 0.28 µg/mL | IC50 [8]: 0.01 µg/mL | IC80 [8]: 0.04 µg/mL | IC50 [9]: 0.14 µg/mL | IC80 [9]: 0.63 µg/mL | IC50 [10]: 0.01 µg/mL | IC80 [10]: 0.05 µg/mL | IC50 [11]: 0.25 µg/mL | IC80 [11]: 1.49 µg/mL | IC50 [12]: > 50 µg/mL | IC80 [12]: > 50 µg/mL | IC50 [13]: 1.59 µg/mL | IC80 [13]: 6.02 µg/mL | IC50 [14]: 0.01 µg/mL | IC80 [14]: 0.05 µg/mL | IC50 [15]: 7.53 µg/mL | IC80 [15]: > 50 µg/mL | IC50 [16]: > 30 µg/mL | IC80 [16]: > 30 µg/mL | IC50 [17]: < 0.05 µg/mL | IC80 [17]: < 0.05 µg/mL | IC50 [18]: 0.14 µg/mL | IC80 [18]: 0.6 µg/mL | IC50 [19]: 0.02 µg/mL | IC80 [19]: 0.06 µg/mL | IC50 [20]: > 50 µg/mL | IC80 [20]: > 50 µg/mL | IC50 [21]: 2.05 µg/mL | IC80 [21]: 12.1 µg/mL | IC50 [22]: 0.12 µg/mL | IC80 [22]: 0.59 µg/mL | IC50 [23]: < 0.001 µg/mL | IC80 [23]: 0.01 µg/mL | IC50 [24]: 0.55 µg/mL | IC80 [24]: 1.56 µg/mL | IC50 [25]: 0.01 µg/mL | IC80 [25]: 0.04 µg/mL | IC50 [26]: 0.44 µg/mL | IC80 [26]: 1.55 µg/mL | IC50 [4]: 0.11 µg/mL | IC80 [4]: 0.11 µg/mL | IC50 [27]: 0.05 µg/mL | IC80 [27]: 0.31 µg/mL | IC50 [28]: 1.29 µg/mL | IC80 [28]: 5.55 µg/mL | IC50 [29]: 0.32 µg/mL | IC80 [29]: 1.07 µg/mL | IC50 [30]: 0.05 µg/mL | IC80 [30]: 0.39 µg/mL | IC50 [31]: 0.04 µg/mL | IC80 [31]: 0.17 µg/mL | IC50 [32]: 0.01 µg/mL | IC80 [32]: 0.03 µg/mL | IC50 [33]: 0.22 µg/mL | IC80 [33]: 0.22 µg/mL | IC50 [34]: 0.22 µg/mL | IC80 [34]: 0.97 µg/mL | IC50 [35]: 0.01 µg/mL | IC80 [35]: 0.03 µg/mL | IC50 [36]: 0.15 µg/mL | IC80 [36]: 0.88 µg/mL | IC50 [37]: 0.09 µg/mL | IC80 [37]: 0.38 µg/mL

PG9 (antibody)
IC50 neutralization (TZM.bl) [5]: 0.018 µg/mL | IC80 neutralization (TZM.bl) [5]: 0.051 µg/mL

PG16 (antibody)
IC50 neutralization (TZM.bl) [5]: 0.008 µg/mL | IC80 neutralization (TZM.bl) [5]: 0.033 µg/mL
